This note sets out measurements from IntAct's records for PubMed 16979624.

Assay [1] has as its target enah_human ENAH (UniProt Q8N8S7).
Assay [2] has as its target home3_human HOMER3 (UniProt Q9NSC5).
Sequence of UniProt Q9NSC5 (Q9NSC5 whole entry): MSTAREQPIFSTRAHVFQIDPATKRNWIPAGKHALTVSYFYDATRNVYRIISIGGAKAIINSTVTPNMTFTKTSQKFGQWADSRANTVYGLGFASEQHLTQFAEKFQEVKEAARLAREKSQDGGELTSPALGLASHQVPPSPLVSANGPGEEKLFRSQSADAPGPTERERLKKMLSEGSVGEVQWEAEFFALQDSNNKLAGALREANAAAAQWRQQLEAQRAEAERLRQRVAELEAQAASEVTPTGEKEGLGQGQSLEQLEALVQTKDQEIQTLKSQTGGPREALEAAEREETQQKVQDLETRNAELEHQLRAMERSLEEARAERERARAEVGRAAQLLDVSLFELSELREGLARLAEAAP

Sequence of UniProt Q8N8S7 (Q8N8S7 whole entry): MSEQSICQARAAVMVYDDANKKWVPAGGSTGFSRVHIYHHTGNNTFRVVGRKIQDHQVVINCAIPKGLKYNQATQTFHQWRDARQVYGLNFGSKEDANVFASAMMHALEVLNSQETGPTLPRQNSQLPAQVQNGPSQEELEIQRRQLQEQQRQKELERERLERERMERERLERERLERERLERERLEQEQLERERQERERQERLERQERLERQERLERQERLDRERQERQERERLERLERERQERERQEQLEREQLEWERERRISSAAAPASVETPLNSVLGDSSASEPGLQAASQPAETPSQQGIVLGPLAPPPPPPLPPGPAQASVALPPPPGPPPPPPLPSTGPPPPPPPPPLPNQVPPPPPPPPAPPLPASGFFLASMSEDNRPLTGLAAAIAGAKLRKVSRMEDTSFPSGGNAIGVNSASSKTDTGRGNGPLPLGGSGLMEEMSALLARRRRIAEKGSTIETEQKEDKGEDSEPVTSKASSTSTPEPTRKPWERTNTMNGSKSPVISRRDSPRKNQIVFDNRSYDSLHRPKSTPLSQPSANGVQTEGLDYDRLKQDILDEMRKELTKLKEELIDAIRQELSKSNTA

Turning to “Protocadherin Fat 1 (Homo sapiens), Q14517 P4438D”, the “effect of a mutation on the interaction” value in assay [1] and in assay [2] was “disrupting interaction” each time.
